Data taken from IntAct's records for PubMed 9867828.

B1: Protein S100-A9 (Homo sapiens), P06702 (parent)
chain: MTCKMSQLERNIETIINTFHQYSVKLGHPDTLNQGEFKELVRKDLQNFLKKENKNEKVIEHIMEDLDTNADKQLSFEEFIMLMARLTWASHEKMHEGDEGPGHHHKPGLGEGTP
partner: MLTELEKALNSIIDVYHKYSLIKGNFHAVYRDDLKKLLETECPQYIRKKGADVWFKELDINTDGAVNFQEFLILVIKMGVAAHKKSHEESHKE

Variants of: B1
Settings: with S100A8, P05109

Variant | effect of a mutation on the interaction
C3S | decreasing interaction
